Source: IntAct's records for PubMed 33758649

B1: Protein PALS1 (Homo sapiens), Q8N3R9 (parent)
chain: MTTSHMNGHVTEESDSEVKNVDLASPEEHQKHREMAVDCPGDLGTRMMPIRRSAQLERIRQQQEDMRRRREEEGKKQELDLNSSMRLKKLAQIPPKTGIDNPMFDTEEGIVLESPHYAVKILEIEDLFSSLKHIQHTLVDSQSQEDISLLLQLVQNKDFQNAFKIHNAITVHMNKASPPFPLISNAQDLAQEVQTVLKPVHHKEGQELTALLNTPHIQALLLAHDKVAEQEMQLEPITDERVYESIGQYGGETVKIVRIEKARDIPLGATVRNEMDSVIISRIVKGGAAEKSGLLHEGDEVLEINGIEIRGKDVNEVFDLLSDMHGTLTFVLIPSQQIKPPPAKETVIHVKAHFDYDPSDDPYVPCRELGLSFQKGDILHVISQEDPNWWQAYREGDEDNQPLAGLVPGKSFQQQREAMKQTIEEDKEPEKSGKLWCAKKNKKKRKKVLYNANKNDDYDNEEILTYEEMSLYHQPANRKRPIILIGPQNCGQNELRQRLMNKEKDRFASAVPHTTRSRRDQEVAGRDYHFVSRQAFEADIAAGKFIEHGEFEKNLYGTSIDSVRQVINSGKICLLSLRTQSLKTLRNSDLKPYIIFIAPPSQERLRALLAKEGKNPKPEELREIIEKTREMEQNNGHYFDTAIVNSDLDKAYQELLRLINKLDTEPQWVPSTWLR

Variants of: B1
Conditions: with vemp_sars2 E

Row | Variant | effect of a mutation on the interaction
1 | F318W | increasing interaction strength
